# Experimental data as given in doi:10.1101/2025.05.13.653593 (bioRxiv, 2025).
# T1: EccB5 (encoded by the Rv1782c gene), spotted on the Mtb proteome microarray (Mycobacterium tuberculosis, UniProt P9WNQ9 1-506)
# T1 sequence: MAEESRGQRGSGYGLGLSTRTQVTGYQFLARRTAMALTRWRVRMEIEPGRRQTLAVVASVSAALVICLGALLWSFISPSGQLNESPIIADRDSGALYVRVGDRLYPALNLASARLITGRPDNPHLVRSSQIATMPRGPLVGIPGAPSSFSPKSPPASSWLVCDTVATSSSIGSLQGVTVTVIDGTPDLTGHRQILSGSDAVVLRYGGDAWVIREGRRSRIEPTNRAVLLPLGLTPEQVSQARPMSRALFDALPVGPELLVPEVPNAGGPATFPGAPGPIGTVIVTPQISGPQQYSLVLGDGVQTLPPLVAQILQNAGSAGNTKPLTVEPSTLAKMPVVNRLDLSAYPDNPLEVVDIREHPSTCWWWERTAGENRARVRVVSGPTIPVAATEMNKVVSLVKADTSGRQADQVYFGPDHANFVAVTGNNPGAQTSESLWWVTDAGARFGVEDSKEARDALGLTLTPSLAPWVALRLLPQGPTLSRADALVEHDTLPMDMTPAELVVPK
# B1: recombinant human GSDMD protein (natural protein, UniProt P57764 1-484, looked up)
# chain: MGSAFERVVRRVVQELDHGGEFIPVTSLQSSTGFQPYCLVVRKPSSSWFWKPRYKCVNLSIKDILEPDAAEPDVQRGRSFHFYDAMDGQIQGSVELAAPGQAKIAGGAAVSDSSSTSMNVYSLSVDPNTWQTLLHERHLRQPEHKVLQQLRSRGDNVYVVTEVLQTQKEVEVTRTHKREGSGRFSLPGATCLQGEGQGHLSQKKTVTIPSGSTLAFRVAQLVIDSDLDVLLFPDKKQRTFQPPATGHKRSTSEGAWPQLPSGLSMMRCLHNFLTDGVPAEGAFTEDFQGLRAEVETISKELELLDRELCQLLLEGLEGVLRDQLALRALEEALEQGQSLGPVEPLDGPAGAVLECLVLSSGMLVPELAIPVVYLLGALTMLSETQHKLLAEALESQTLLGPLELVGSLLEQSAPWQERSTMSLPPGLLGNSWGEGAPAWVLLDECGLELGEDTPHVCWEPQAQGRMCALYASLALLSGLSQEPH
# notes: also called gasdermin D; recombinant GSDMD
# Biological target: T1, EccB5 (encoded by the Rv1782c gene), …
# Test: peptide or protein array
# Details: both partners purified
binder,measurement,value
B1,binding result,binds
